To fix the notation:
T1: E. coli aspartate aminotransferase (AAT) (Escherichia coli, UniProt P00509)
T1 construct: gene aspC; full-length, N-terminal His-tag, expressed in E. coli BL21-Gold (DE3), Ni-NTA purified; 90 kDa homodimer, PLP-dependent
T1 sequence (P00509 1-396): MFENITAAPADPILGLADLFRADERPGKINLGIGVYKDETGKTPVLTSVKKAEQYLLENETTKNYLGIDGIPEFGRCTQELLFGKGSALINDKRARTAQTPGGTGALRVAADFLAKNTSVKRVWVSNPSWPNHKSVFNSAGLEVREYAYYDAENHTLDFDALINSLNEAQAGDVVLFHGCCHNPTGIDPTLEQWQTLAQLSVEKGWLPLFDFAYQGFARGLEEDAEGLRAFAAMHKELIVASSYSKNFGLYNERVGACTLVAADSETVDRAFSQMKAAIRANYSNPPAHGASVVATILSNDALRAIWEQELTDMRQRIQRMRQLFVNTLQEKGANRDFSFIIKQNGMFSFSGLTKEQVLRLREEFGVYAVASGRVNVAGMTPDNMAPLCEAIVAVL

B1: E. coli aspartate aminotransferase (AAT) (Escherichia coli K-12) (protein)
chain: T1 sequence (P00509 1-396)
notes: full-length, N-terminal His-tag, expressed in E. coli BL21-Gold (DE3), Ni-NTA purified; 90 kDa homodimer, PLP-dependent
B2: E. coli aspartate aminotransferase (AAT) (Escherichia coli K-12; K37I/N64S/T43F/V35A) (protein)
chain: T1 sequence (P00509 1-396) with V35A, K37I, T43F, N64S
notes: as for B1
B3: E. coli aspartate aminotransferase (AAT) (Escherichia coli K-12; K37Y/N285S/N64L/T104S/T43I/V35L) (protein)
chain: T1 sequence (P00509 1-396) with V35L, K37Y, T43I, N64L, T104S, N285S
notes: as for B1
B4: E. coli aspartate aminotransferase (AAT) (Escherichia coli K-12; K37F/N64Y/T43I) (protein)
chain: T1 sequence (P00509 1-396) with K37F, T43I, N64Y
notes: as for B1
B5: E. coli aspartate aminotransferase (AAT) (Escherichia coli K-12; K37F/N64T/T43I) (protein)
chain: T1 sequence (P00509 1-396) with K37F, T43I, N64T
notes: as for B1
B6: E. coli aspartate aminotransferase (AAT) (Escherichia coli K-12; K37F/N64S/T43C) (protein)
chain: T1 sequence (P00509 1-396) with K37F, T43C, N64S
notes: as for B1
B7: wild-type E. coli aspartate aminotransferase (enzyme)
chain: T1 sequence (P00509 1-396)
modifications: imine bond between PLP and K246 (internal aldimine)
notes: aspartate aminotransferase (AAT), Escherichia coli, UniProt P00509; Gene with N-terminal His-tag in pET-45b; also called AAT; WT; source: E. coli BL21-Gold (DE3), purified (Ni-NTA, gel filtration)
B8: E. coli aspartate aminotransferase hexamutant HEX (enzyme)
chain: T1 sequence (P00509 1-396) with V35L, K37Y, T43I, N64L, T104S, N285S
modifications: imine bond between PLP and K246 (internal aldimine)
notes: aspartate aminotransferase (AAT), Escherichia coli, UniProt P00509, with six mutations; T104S and N285S are T109S and N297S in the numbering of PDB 1AHE and 1AHY; Mutant genes were ligated into pET-11a; the proteins were purified on Ni-NTA; source: E. coli BL21-Gold (DE3), purified (Ni-NTA, gel filtration)

Where a chain is given by its changes, count along the chain named. In names and notes the source's numbering stands.

Results on ten molecules are retold here after article PMC10539519, “Computational remodeling of an enzyme conformational landscape for altered substrate selectivity” (Nature Communications, 2023).

Substrate in one data set: N[C@@H](CC(=O)O)C(=O)O
The data set is described as follows: purified protein. The settings on record: co-substrate α-ketoglutarate (fixed, 0.1563–1.25 mM range), 16 µM PLP, 5 mM NAD+, 100 mM potassium phosphate pH 8, 37 °C.
One may read the Km as the substrate concentration at which the rate is half of its maximum. A word on the kcat/Km: it is the second-order rate constant that governs catalysis at low substrate concentration. Take B1: the Km stood at 210 ± 30 µM, the kcat came to 7.8 s⁻¹ and the kcat/Km stood at 37000 ± 5000 M⁻¹ s⁻¹.
Regarding B2, the Km came out at 320 ± 30 µM, the kcat stood at 2.42 s⁻¹ and the kcat/Km stood at 7600 M⁻¹ s⁻¹.
The corresponding values for B3 are 59 ± 7 µM, 1.32 s⁻¹ and 22000 ± 3000 M⁻¹ s⁻¹.
The corresponding values for B4 are 120 ± 10 µM, 0.263 s⁻¹ and 2200 M⁻¹ s⁻¹.
On to B5, for which the Km was found to be 27 ± 3 µM, the kcat worked out at 0.9 s⁻¹ and the kcat/Km was 33000 ± 4000 M⁻¹ s⁻¹.
With B6, the Km was determined as 68 ± 7 µM, the kcat amounted to 6 s⁻¹ and the kcat/Km is 88000 ± 9000 M⁻¹ s⁻¹.

The target in another data set is T1, E. coli aspartate aminotransferase (AAT). The data set is described as follows: room-temperature X-ray crystallography. It is filed as binding. The following applies: co-crystallised with 20 mM maleate, 278 K; contacts Arg280 and Arg374; closed conformation.
As for `O=C(O)/C=C\C(=O)O` [maleate], the “room-temperature X-ray crystallography” value was “electrostatic interactions between maleate and the side chains of Arg280 and Arg374”.

The same data set, now with this note: covalent internal aldimine with K246; 10 µM PLP in crystallisation.
In the case of `Cc1ncc(COP(=O)(O)O)c(C=O)c1O` [pyridoxal phosphate], the “room-temperature X-ray crystallography” value is on record as “Restraints for PLP in its internal aldimine form were generated using phenix.elbow”.

Substrate in a further data set: N[C@@H](Cc1ccccc1)C(=O)O
The data set is described as follows: purified protein. It is filed as biochemical, Escherichia coli. The following applies: co-substrate α-ketoglutarate (fixed, 0.1563–1.25 mM range), 16 µM PLP, 5 mM NAD+, 100 mM potassium phosphate pH 8, 37 °C.
In the case of B2, the Km worked out at 2600 ± 200 µM, the kcat was found to be 0.54 ± 0.01 s⁻¹ and the catalytic efficiency (kcat/Km) came to 210 ± 20 M⁻¹ s⁻¹.
The corresponding values for B3 are 270 ± 30 µM, 9 ± 0.2 s⁻¹ and 33000 ± 4000 M⁻¹ s⁻¹.
In the case of B4, the Km was determined as 420 ± 40 µM, the kcat amounted to 17.3 ± 0.4 s⁻¹ and the kcat/Km worked out at 41000 ± 4000 M⁻¹ s⁻¹.
As for B5, the Km worked out at 900 ± 60 µM, the kcat came to 22.8 ± 0.4 s⁻¹ and the kcat/Km came out at 25000 ± 2000 M⁻¹ s⁻¹.
Take B6: the Km is 12000 ± 1000 µM, the kcat stood at 87 ± 3 s⁻¹ and the kcat/Km came to 7200 ± 700 M⁻¹ s⁻¹.

Substrate in the next data set: O=C(O)CCC(=O)C(=O)O
The data set is described as follows: purified protein. The data set is classed as biochemical, Escherichia coli. The following applies: α-ketoglutarate varied 0.002–20 mM, co-substrate 10–20 mM L-aspartate or L-phenylalanine, substrate inhibition, 16 µM PLP, pH 8, 37 °C.
For the molecule B1, the Km worked out at 65 ± 5 µM and the kcat is 12.2 ± 0.3 s–1.

A further data set deals with the molecule itself. The data set is described as follows: crystal structure; X-ray crystallography, space group P 6_(3), two chains in the asymmetric unit; crystals grown with 20 mM maleate and ammonium sulfate, with or without soaking to remove maleate; data at 278 K (AIFS at 100 K; WT, HEX, VFIT also at 303 K).
Conditions: not given
As usually defined, the stoichiometry N is a count of units in the complex or per binding partner. For the molecule B7, the “stoichiometry N” value was 2.
The same measure, in the same setting: the same measure for B8: 2.
